Experimental data published in patent US7109170B2, “Region of factor IXa protease domain that interacts with factor VIIIa and methods therefor” (Saint Louis University, priority 1999, dated 2006).

What was measured:
factor XIa/Ca2+ = target: T1, factor XIa/Ca2+ (Homo sapiens, UniProt P03951); assay: activation of factor IX mutants by factor XIa/Ca2+ (SDS gel); type: biochemical; details: analyzed by SDS gel electrophoresis
T1 construct: purchased Enzyme Research Laboratories (South Bend, Ind.)
Experimental: The rates of activation of the protease domain factor IX mutants by VIIa/TF and by Factor Xla/Ca^2+ was also determined, under conditions described in Mathur et al., 1997, supra, either by VIIa/TF/Ca^2+ or by factor Xla/Ca^2+. The rates of the mutants were similar to that of IXNP as analyzed by SDS gel electrophoresis.
Various DEGR-ck-inhibited factor IXa proteins were prepared for these experiments as follows. IXNP, IXWT, and each mutant factor IX at 200 μg/ml was activated by factor XIa (2 μg/ml) for 90 min. in TBS, pH 7.4 (0.05 M Tris, 0.15 M NaCl, pH 7.4) containing 5 mM Ca^2+. […] DEGR-IXaNP, DEGR-IXaWT, and various DEGR-IXa mutant proteins were prepared as described in Mathur et al., 1997, supra, and free DEGR-ck was removed as described in Sabharwal et al., 1995, supra and Krishnaswamy, 1992, J. Biol. Chem. 267, 23696–23706.

[1] = target: mouse monoclonal antibody (mAb) that inhibits the interaction of factor IXa with factor VIIIa; assay: binding of IX proteins to mAb that interferes with IXa:VIIIa interaction (coagulant based / competition assay)
Text: The ability of the IX mutant proteins to bind to a mAb (Bajaj et al., 1985, supra) which interferes with the interaction of IXa and VIIIa was studied using a coagulant based assay as described in Usharani et al., 1985, J. Clin. Invest.

[2] = from other studies; cited from earlier work
factor VIIIa [3] = details: from other studies; cited from earlier work
factor X [4] = target: T2, factor X (Homo sapiens, UniProt P00742); assay: factor X activation in complete intrinsic Tenase system (IXa, Ca2+, phospholipid, VIIIa); type: biochemical; design: Normal human plasma factor IX (IXNP) and factor X were isolated as described in Bajaj and Birktoft; from tissue; host or cells: human plasma (factor X); factor VIII obtained from Dr. Leon Hoyer, American Red Cross; details: 70 pM VIIIa, 0.5 nM IXa, 15 nM X, phospholipid present
Experimental: (§1) The ability of each activated mutant to activate factor X in the presence and absence of phospholipid and factor VIIIa was determined as follows. The activation was carried out at 37° C. in a 50 μl reaction volume, in TBS/BSA pH 7.4, for various time periods. At the end of the incubation time period, each reaction mixture received 1 μl of 0.5 M EDTA to stop further generation of factor Xa. A 40 μL aliquot was then added to 0.1 ml quartz cuvette containing S-2222 in 75 μL of TBS/BSA, pH 7.4. The final concentration of S-2222 was 100 μM. The p-nitroaniline release was measured continuously (ΔA405/min) for up to 20 min (Sabharwal et al., 1995 supra; Sabharwal et al., 1997, supra). Factor Xa generated was calculated from a standard curve constructed using factor Xa prepared from insolubilized Russell's viper venom.
(§2) Factor X activation measurements were made under four experimental regimes. In one, Ca^2+ and phospholipid were present. In this system activation was carried out for 5–15 minutes and the concentration of each IXa protein was 20 nM, phospholipid was 25 μM, and factor X was 100 nM. In the second regime, Ca^2+, phospholipid and factor VIIIa were present. […] In the third regime, only Ca^2+ was present. Here, activation was carried out for 2–20 min and concentration of each IXa protein was 400 nM and factor X was 1 μM. Finally, in the fourth regime, Ca^2+ and VIIIa were present. Here, activation was carried out for 15–120 sec and the concentration of each IXa protein was 2 μM, VIIIa was 14 nM, and factor X was 400 nM.
(§3) In all of the above factor X activation experiments, the incubation times chosen were those in which the factor Xa generated was always less than 10 nM. This precautionary measure was taken to prevent activation of factor X by the generated factor Xa (see, e.g., Link. and Castellino, 1982, Arch Biochem. Biophys. 215, 215–221). Further, in those incubation mixtures which contained […], control experiments were also performed in which factor VIIIa was omitted. […] In the presence of factor VIIIa, 10 μM phospholipid was used based upon previous observations (Mathur et al., 1997, supra; van Dieijen et al., 1981, J. Biol. Chem. 256, 3433–3442). The concentrations of factor X selected for each set of reaction conditions are those which are below or at the Km values (van Dieijen et al., supra; Fay and Koshibu, 1998, J Biol. Chem. 273, 19049–19054). In this region of the Michaelis-Menton curve, the rate of formation of factor Xa is proportional to the substrate factor X and therefore to the affinity of the factor IXa enzyme for factor X.
Next, the activation of factor X in a complete intrinsic Tenase system (IXa, Ca^2+, phospholipid, VIIIa) was studied.
Target sequence in this assay (P00742 183-488 limits assumed, one chain of several): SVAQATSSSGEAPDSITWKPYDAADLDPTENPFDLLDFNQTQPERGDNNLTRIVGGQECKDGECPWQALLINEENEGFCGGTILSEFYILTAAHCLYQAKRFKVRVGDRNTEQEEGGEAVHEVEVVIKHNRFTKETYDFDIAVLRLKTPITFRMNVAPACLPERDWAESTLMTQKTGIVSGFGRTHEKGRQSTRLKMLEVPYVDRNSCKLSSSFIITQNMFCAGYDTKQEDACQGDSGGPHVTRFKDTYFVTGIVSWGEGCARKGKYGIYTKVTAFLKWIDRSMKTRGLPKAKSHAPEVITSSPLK
Target sequence in this assay (P00742 41-179 limits assumed, one chain of several): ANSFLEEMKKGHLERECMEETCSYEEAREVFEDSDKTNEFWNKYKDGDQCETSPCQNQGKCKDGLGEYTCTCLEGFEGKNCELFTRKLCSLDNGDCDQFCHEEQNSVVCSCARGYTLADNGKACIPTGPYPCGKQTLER

[5] = test system: Factor IX deficient plasma; assay: coagulant activity of XIa-activated IXa proteins; type: biochemical
factor X [6] = target: T2, factor X; assay: factor X activation by IXa proteins, Ca2+ and VIIIa, no phospholipid; type: biochemical; design: Normal human plasma factor IX (IXNP) and factor X were isolated as described in Bajaj and Birktoft; from tissue; host or cells: human plasma (factor X); factor VIII obtained from Dr. Leon Hoyer, American Red Cross; details: 14 nM VIIIa, 400 nM factor X
Experimental: as §1, §2, §3
Target sequence in this assay (P00742 183-488 limits assumed, one chain of several): as the sequence (P00742 183-488 limits assumed, one chain of several) above
Target sequence in this assay (P00742 41-179 limits assumed, one chain of several): as the sequence (P00742 41-179 limits assumed, one chain of several) above

factor X [7] = target: T2, factor X; assay: factor X activation by IXa proteins, Ca2+ only; type: biochemical; design: Normal human plasma factor IX (IXNP) and factor X were isolated as described in Bajaj and Birktoft; from tissue; host or cells: human plasma; details: 1 μM X, 400 nM IXa, no phospholipid, no VIIIa
Experimental: as §1
as §2, with “Here, activation was carried out for 15–120 sec and the concentration of each IXa protein was 2 μM, VIIIa was 14 nM, and factor X was 400 nM.” left out
Target sequence in this assay (P00742 183-488 limits assumed): as the sequence (P00742 183-488 limits assumed, one chain of several) above
Target sequence in this assay (P00742 41-179 limits assumed): as the sequence (P00742 41-179 limits assumed, one chain of several) above

factor X [8] = target: T2, factor X; assay: factor X activation by IXa proteins, Ca2+ and phospholipid, without VIIIa; type: biochemical; design: Normal human plasma factor IX (IXNP) and factor X were isolated as described in Bajaj and Birktoft; from tissue; host or cells: human plasma; details: no VIIIa, 20 nM IXa, 25 μM phospholipid, 100 nM X
Experimental: as §1
as §2, with “Here, activation was carried out for 15–120 sec and the concentration of each IXa protein was 2 μM, VIIIa was 14 nM, and factor X was 400 nM.” left out
Target sequence in this assay (P00742 183-488 limits assumed): as the sequence (P00742 183-488 limits assumed, one chain of several) above
Target sequence in this assay (P00742 41-179 limits assumed): as the sequence (P00742 41-179 limits assumed, one chain of several) above

factor VIIIa [9] = target: T3, factor VIIIa (Homo sapiens, UniProt P00451); assay: inhibition of Xa generation by active site-blocked (DEGR) IXa proteins, absence of phospholipid (Kd,app for VIIIa); type: biochemical; details: active site-blocked (DEGR) IXa proteins, no phospholipid
T3 construct: purchased Dr. Leon Hoyer (American Red Cross, Rockville, Md.)
T3 sequence (P00451 20-759 limits assumed): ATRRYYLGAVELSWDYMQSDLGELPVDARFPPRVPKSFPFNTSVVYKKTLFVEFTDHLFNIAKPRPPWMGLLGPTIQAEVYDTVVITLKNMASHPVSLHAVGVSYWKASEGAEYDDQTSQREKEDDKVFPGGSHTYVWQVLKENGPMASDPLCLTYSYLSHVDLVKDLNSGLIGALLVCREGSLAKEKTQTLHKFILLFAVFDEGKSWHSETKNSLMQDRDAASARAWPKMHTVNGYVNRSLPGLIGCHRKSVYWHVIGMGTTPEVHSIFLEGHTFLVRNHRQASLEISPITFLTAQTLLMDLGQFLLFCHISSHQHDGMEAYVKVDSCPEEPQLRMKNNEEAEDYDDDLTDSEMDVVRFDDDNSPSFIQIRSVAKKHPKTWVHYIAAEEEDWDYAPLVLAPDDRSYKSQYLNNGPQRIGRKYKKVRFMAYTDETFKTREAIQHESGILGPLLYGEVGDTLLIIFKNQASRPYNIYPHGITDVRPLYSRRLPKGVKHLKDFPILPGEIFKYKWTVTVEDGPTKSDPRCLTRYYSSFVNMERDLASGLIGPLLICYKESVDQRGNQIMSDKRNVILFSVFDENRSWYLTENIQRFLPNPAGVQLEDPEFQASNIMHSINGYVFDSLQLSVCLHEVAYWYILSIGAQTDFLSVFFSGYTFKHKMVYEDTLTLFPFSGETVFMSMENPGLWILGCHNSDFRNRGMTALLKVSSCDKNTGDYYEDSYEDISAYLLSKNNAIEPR
T3 sequence (P00451 1668-2351 limits assumed): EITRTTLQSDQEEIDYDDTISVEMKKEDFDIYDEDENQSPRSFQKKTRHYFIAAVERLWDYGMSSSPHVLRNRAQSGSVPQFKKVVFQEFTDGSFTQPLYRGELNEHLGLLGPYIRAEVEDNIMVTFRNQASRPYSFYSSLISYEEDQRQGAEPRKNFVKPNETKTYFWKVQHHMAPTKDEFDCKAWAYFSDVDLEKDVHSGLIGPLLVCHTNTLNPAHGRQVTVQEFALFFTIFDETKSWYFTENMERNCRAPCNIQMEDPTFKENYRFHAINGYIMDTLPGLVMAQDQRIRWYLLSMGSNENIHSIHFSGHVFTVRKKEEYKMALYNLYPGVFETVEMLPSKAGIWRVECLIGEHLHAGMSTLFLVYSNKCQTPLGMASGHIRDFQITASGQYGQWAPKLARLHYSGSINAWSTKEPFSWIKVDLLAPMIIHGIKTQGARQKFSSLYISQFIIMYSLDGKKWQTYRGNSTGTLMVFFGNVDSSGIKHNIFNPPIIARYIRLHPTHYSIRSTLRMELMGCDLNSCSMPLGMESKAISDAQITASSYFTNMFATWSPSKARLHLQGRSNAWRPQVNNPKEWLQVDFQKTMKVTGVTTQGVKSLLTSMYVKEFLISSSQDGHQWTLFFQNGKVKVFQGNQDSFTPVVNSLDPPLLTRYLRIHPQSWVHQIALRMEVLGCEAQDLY
Experimental: (§4) Apparent Kds of factor VIIIa binding to various active site-blocked factor IXa proteins were determined from inhibition experiments as detailed in Mathur et al., 1997, supra. […] Reactions were carried out for 2 min and the rates of factor X activation were measured as outlined above.
(§5) Various DEGR-ck-inhibited factor IXa proteins were prepared for these experiments as follows. IXNP, IXWT, and each mutant factor IX at 200 μg/ml was activated by factor XIa (2 μg/ml) for 90 min. in TBS, pH 7.4 (0.05 M Tris, 0.15 M NaCl, pH 7.4) containing 5 mM Ca^2+.
(§6) Enzymol. 74, 481–508 given below:
(§7) [formula] where y is the rate of Xa formation in the presence of a given concentration of DEGR-IXa protein represented by x, a is the maximum rate of Xa formation in the absence of DEGR-IXa, and s is the slope factor. Each point was weighted equally and the data were fitted to Equation 1 using the nonlinear regression analysis program obtained from Erithacus Software (GraFit). […] To obtain the Kd,app values for the interaction of DEGR-IXa proteins with factor VIIIa, the following equation was used, as described by Cheng and Prusoff, 1973, Biochem. Pharmacol. 22, 3099–3108 and further discussed by Craig, 1993, Trends Pharmacol. Sci. 6, 68–71.

factor VIIIa [10] = target: T3, factor VIIIa; assay: inhibition of Xa generation by active site-blocked (DEGR) IXa proteins, presence of phospholipid (Kd,app for VIIIa); type: biochemical; details: active site-blocked (DEGR) IXa proteins, 10 μM phospholipid; read-out: Kd, app for interaction with factor VIIIa, PL-plus system
Experimental: as §4, §5, §6, §7

T1 sequence (P03951 388-625 limits assumed): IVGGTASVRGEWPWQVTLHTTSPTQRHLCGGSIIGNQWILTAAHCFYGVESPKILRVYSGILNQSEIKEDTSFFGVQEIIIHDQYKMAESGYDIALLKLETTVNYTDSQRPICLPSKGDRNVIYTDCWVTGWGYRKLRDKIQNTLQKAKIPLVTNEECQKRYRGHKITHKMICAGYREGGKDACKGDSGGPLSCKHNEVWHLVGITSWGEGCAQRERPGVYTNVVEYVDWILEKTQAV
T1 sequence (P03951 19-387 limits assumed): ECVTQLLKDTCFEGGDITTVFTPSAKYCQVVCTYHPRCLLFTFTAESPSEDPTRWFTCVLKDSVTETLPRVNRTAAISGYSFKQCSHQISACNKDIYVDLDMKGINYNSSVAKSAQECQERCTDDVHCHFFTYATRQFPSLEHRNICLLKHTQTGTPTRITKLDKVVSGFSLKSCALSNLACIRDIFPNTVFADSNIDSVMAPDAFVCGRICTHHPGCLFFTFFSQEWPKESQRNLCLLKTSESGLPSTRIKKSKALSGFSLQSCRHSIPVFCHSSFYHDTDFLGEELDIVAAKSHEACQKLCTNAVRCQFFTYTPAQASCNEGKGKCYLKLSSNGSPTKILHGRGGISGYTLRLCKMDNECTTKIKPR

## IXQ50P: factor IX mutant that lacks the EGF1 domain Ca2+ binding site
Factor XIa/Ca2+
  rate of activation by factor XIa/Ca2+: readily activated
[1]
  Kd: ~15 nM

## R338A: factor IX R338A mutant described by Chang and coworkers [Protein R338A]
[2]
  activity of variant: slightly increased activity
Factor VIIIa [3]
  factor VIIIa binding / affinity of variant: without an impairment in factor VIIIa binding

## IXaT335A: activated factor IX mutant T335A
Factor X [4]
  X-activation rate, PL-plus system: 1.92 ± 0.11 nM/min
Factor X [4]; listed as IXaI335A
  X-activation rate, PL-plus system: ~1.9 nM/min
[5]
  coagulant activity as compared to IXaNP: ~35%
Factor X [6]
  X-activation rate, PL-minus system: 1.83 ± 0.18 nM/min

## IXaQ50P: activated EGF1 domain mutant Q50P of factor IX
Factor X [7]
  rate of factor X activation, Ca2+ only: ~0.39 nM/min
Factor X [8]
  rate of factor Xa generation: 0.07 nM/min
Factor VIIIa [9]
  Kd, app for interaction with factor VIIIa, PL-minus system: indistinguishable from that of normal IXa

## IXPCEGF1: factor IX in which EGF1 residues 52–85 are replaced by residues 51–92 of protein C
Factor XIa/Ca2+
  rate of activation by factor XIa/Ca2+: readily activated

## IXaPCEGF1: activated factor IX with EGF1 domain replaced by that of protein C
Factor VIIIa [10]
  Kd: 5.71 ± 0.82 nM
Factor X [7]
  rate of factor X activation, Ca2+ only: ~0.48 nM/min
Factor X [8]
  rate of factor Xa generation: 0.06 nM/min
Factor VIIIa [9]
  Kd, app for interaction with factor VIIIa, PL-minus system: indistinguishable from that of normal IXa
Factor VIIIa [9]; read-out: Kd, app for interaction with factor VIIIa, PL-minus system
  Kd: 210 ± 10 nM
